Positions count from the first letter of the chain named.
B1: Furin (protein)
chain: DVYQEPTDPKFPQQWYLSGVTQRDLNVKAAWAQGYTGHGIVVSILDDGIEKNHPDLAGNYDPGASFDVNDQDPDPQPRYTQMNDNRHGTRCAGEVAAVANNGVCGVGVAYNARIGGVRMLDGEVTDAVEARSLGLNPNHIHIYSASWGPEDDGKTVDGPARLAEEAFFRGVSQGRGGLGSIFVWASGNGGREHDSCNCDGYTNSIYTLSISSATQFGNVPWYSEACSSTLATTYSSGNQNEKQIVTTDLRQKCTESHTGTSASAPLAAGIIALTLEANKNLTWRDMQHLVVQTSKPAHLNANDWATNGVGRKVSHSYGYGLLDAGAMVALAQNWTTVAPQRKCIIDILTEPKDIGKRLEVRKTVTACLGEPNHITRLEHAQARLTLSYNRRGDLAIHLVSPMGTRSTLLAARPHDYSADGFNDWAFMTTHSWDEDPSGEWVLEIENTSEANNYGTLTKFTLVLYGTA
B2: TACE pro-domain (wild type) (other)
chain: DPGFGPHQRLEKLDSLLSDYDILSLSNIQQHSVRKRDLQTSTHVETLLTFSALKRHFKLYLTSSTERFSQNFKVVVVDGKNESEYTVKWQDFFTGHVVGEPDSRVLAHIRDDDVIIRINTDGAEYNIEPLWRFVNDTKDKRMLVYKSEDIKNVSRLQSPKVCGYLKVDNEELLPKGLVDREPPEELVHRVKR

Columns and labels:
[1] = target: TACE catalytic domain (UniProt P78536 215-477, limits assumed); assay: cell-based or functional assay
Chain of TACE catalytic domain (P78536 215-477 limits assumed): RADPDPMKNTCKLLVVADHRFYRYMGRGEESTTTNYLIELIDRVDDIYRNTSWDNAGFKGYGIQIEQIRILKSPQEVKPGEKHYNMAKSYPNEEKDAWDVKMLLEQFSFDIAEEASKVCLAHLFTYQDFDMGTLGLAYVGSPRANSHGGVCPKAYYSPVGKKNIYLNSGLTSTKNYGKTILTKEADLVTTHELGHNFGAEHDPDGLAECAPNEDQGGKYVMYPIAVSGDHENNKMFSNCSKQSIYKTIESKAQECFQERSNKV

[2] = target: T1, TACE pro-domain R58A mutant
T1 chain: B2 chain with R36A

[3] = target: T2, TACE pro-domain (wild type)
T2 chain: B2 chain

[4] = target: T3, MMP7 catalytic domain (UniProt P09237 95-267); assay: cell-based or functional assay
T3 sequence (looked up): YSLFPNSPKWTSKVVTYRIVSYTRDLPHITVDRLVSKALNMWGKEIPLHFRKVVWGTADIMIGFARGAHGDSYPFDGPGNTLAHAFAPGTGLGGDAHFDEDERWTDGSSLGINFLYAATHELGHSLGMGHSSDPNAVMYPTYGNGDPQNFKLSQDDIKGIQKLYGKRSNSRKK

[5] = target: MMP9 catalytic domain (UniProt P14780 107-444, limits assumed); assay: cell-based or functional assay
Chain of MMP9 catalytic domain (P14780 107-444 limits assumed): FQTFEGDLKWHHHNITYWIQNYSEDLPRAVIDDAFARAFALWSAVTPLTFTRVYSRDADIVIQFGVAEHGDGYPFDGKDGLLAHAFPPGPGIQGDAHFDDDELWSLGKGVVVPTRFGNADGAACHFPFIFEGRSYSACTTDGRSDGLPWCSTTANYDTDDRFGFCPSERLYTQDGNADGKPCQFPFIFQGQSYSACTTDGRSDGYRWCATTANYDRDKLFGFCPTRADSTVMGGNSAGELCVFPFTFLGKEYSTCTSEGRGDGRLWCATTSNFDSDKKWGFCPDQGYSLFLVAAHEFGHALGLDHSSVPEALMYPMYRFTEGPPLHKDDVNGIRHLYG

| Molecule | IC50, proteolytic activity of TACE [1] | cleavage by Furin (SDS-PAGE) [2] | cleavage by Furin (SDS-PAGE) [3] | IC50, catalytic activity on fluorogenic peptide [4] | IC50 relative to the IC50 towards TACE [4] | IC50, catalytic activity on fluorogenic peptide [5] | IC50 relative to the IC50 towards TACE [5] | IC50, catalytic activity on fluorogenic peptide [1] |
| --- | --- | --- | --- | --- | --- | --- | --- | --- |
| TACE pro-domain R58A mutant (from UniProt P78536 23-214) | 55 nM |  |  |  |  |  |  |  |
| B1 |  | pro-R58A mutant was not cleaved by Furin | Only pro-WT was processed by Furin generating a smaller fragment of ˜17kDa |  |  |  |  |  |
| B2 | 23 nM |  |  | 8790 nM | 80 fold | 4480 nM | 40 fold | 119 nM |

— patent US20170304412A1 (YEDA RESEARCH AND DEVELOPMENT, published 2017)
